# Measured values published in article PMC7144912 (Nucleic Acids Research, 2020).
# Read-outs that look alike come from different tables or passages of the source.
# B1: catalytic domain of human DNMT3B (3B-CD, residues 571–853) (domain or fragment, UniProt Q9UBC3 571-853, looked up)
# chain: RRRPIRVLSLFDGIATGYLVLKELGIKVGKYVASEVCEESIAVGTVKHEGNIKYVNDVRNITKKNIEEWGPFDLVIGGSPCNDLSNVNPARKGLYEGTGRLFFEFYHLLNYSRPKEGDDRPFFWMFENVVAMKVGDKRDISRFLECNPVMIDAIKVSAAHRARYFWGNLPGMNRPVIASKNDKLELQDCLEYNRIAKLKKVQTITTKSNSIKQGKNQLFPVVMNGKEDVLWCTELERIFGFPVHYTDVSNMGRGARQKLLGRSWSVPVIRHLFAPLKDYFACE
# B2: CpGpT crystallization duplex (dsDNA)
# DNA 1: GCATGCGTTCTAATTAGAACGCATG
# DNA 2: GCATGCGTTCTAATTAGAACGCATG
# B3: CpGpG crystallization duplex (dsDNA)
# DNA 1: GAATTCGGAAAAATTTTTCCGAATT
# DNA 2: GAATTCGGAAAAATTTTTCCGAATT
# Assays:
# [1] = target: the molecule itself; experiment: crystal structure
# [2] = target: T1, DNMT3B catalytic domain (3B-CD);DNMT3L catalytic-like domain (3L-CD) (Homo sapiens;Homo sapiens, UniProt Q9UBC3;Q9UJW3 571-853;178-379, |); experiment: X-ray crystallography
# [3] = target: T1, DNMT3B catalytic domain (3B-CD);DNMT3L …; experiment: X-ray crystallography; remark: listed apart in the source
# T1 sequence (Q9UJW3 178-379, one chain of several): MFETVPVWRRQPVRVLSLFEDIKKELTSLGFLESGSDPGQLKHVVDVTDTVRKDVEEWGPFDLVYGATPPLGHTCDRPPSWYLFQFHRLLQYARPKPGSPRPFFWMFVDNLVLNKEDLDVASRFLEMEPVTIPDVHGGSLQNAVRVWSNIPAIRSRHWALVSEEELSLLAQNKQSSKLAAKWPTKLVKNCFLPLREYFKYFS
binder,measurement,setting,value
B1,binding result,[1],binds
B2,binding result,[2],binds
B3,binding result,[3],binds
